Laboratory results as given in patent US20180305423A1 (OKLAHOMA MEDICAL RESEARCH FOUNDATION, published 2018).

Experiments:
[1] = target: T1, VEGFR2 (endogenous, HUVEC^αvβ3 cells) (human, UniProt P35968 20-1356); experiment: co-IP with anti-VEGFR2 from HUVECαvβ3 cells, blot for Epn1, with quantification [panel B]
T1 construct: whole, on cells

[2] = target: T2, IP3R1 (IP3 receptor 1, ITPR1) (mouse, UniProt P11881 1-2749, limits assumed); experiment: IP with epsin 1 antibody from oxLDL-treated MAEC, gel for mass spectrometry [panel A]
T2 construct: also called IP3 Receptors
T2 sequence (P11881 whole entry): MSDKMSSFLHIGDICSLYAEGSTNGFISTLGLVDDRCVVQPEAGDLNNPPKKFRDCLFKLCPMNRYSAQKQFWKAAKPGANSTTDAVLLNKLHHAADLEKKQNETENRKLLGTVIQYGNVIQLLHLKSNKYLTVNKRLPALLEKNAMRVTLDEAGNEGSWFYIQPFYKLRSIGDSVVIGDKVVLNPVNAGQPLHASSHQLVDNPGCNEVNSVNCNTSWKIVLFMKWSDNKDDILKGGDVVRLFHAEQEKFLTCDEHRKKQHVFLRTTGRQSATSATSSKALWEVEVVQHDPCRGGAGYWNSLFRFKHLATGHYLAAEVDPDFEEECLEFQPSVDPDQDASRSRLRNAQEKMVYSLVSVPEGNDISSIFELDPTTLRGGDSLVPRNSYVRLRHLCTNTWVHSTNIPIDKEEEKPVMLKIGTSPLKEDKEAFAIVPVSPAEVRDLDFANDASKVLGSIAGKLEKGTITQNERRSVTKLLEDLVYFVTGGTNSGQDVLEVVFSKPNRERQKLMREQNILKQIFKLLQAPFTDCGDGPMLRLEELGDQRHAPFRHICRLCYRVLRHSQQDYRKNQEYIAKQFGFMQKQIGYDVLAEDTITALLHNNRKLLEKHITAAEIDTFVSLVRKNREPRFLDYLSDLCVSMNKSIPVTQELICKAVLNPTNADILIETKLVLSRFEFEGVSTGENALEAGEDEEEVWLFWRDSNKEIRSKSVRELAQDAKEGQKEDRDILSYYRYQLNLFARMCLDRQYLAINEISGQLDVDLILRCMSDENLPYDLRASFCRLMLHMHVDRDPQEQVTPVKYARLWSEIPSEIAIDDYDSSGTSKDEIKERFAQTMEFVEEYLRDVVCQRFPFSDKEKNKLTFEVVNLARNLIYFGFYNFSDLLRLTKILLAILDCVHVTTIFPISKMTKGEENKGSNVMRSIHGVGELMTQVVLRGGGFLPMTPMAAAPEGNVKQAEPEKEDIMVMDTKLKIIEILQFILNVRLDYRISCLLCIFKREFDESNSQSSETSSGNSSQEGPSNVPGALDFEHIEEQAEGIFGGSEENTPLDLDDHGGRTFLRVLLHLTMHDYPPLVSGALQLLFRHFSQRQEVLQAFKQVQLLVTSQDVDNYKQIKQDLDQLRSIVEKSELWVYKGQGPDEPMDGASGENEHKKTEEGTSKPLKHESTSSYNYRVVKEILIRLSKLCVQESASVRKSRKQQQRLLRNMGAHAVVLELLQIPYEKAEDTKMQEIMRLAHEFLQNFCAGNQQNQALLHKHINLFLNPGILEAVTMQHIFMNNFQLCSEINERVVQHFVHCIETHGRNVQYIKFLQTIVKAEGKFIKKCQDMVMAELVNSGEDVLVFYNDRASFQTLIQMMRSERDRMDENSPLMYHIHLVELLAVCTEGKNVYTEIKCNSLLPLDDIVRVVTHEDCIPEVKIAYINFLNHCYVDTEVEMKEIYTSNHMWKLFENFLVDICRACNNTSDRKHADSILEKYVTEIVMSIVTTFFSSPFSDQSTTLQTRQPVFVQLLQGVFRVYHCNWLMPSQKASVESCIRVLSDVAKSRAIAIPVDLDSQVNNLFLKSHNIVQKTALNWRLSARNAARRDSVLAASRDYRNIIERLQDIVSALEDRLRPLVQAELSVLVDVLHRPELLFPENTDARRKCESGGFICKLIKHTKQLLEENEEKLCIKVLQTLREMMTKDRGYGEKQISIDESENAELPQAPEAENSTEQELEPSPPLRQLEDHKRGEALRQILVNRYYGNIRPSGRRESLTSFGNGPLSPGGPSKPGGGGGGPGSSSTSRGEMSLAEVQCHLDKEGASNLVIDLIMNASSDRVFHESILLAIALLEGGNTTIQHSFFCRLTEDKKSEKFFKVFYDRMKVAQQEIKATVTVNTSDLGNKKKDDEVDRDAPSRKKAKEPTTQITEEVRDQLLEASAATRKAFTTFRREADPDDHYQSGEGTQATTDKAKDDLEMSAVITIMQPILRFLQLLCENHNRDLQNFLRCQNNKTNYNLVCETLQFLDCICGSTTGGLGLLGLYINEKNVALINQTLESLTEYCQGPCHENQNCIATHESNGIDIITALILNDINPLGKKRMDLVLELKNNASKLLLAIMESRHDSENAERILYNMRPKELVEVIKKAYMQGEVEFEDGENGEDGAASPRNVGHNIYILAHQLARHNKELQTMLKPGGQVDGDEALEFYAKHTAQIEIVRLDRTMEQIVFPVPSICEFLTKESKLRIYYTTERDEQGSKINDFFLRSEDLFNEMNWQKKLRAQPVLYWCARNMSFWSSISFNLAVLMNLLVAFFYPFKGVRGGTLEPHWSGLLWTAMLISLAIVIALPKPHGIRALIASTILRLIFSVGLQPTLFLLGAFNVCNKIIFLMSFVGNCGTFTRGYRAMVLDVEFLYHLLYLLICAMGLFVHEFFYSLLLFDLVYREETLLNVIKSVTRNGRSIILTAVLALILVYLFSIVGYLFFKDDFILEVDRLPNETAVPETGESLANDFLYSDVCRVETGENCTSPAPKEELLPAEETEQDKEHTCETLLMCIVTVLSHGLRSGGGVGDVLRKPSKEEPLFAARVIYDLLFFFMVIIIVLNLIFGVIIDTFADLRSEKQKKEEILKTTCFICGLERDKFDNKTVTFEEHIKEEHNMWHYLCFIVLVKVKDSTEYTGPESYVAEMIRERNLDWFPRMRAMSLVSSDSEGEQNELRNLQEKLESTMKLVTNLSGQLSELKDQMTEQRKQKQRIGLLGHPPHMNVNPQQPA

[3] = target: T3, IRS1 (insulin receptor substrate) (UniProt P35569 1-1233); experiment: co-IP with anti-epsin 1 from 3T3-L1 pre-adipocytes with or without insulin, blot for IRS1
T3 sequence (looked up): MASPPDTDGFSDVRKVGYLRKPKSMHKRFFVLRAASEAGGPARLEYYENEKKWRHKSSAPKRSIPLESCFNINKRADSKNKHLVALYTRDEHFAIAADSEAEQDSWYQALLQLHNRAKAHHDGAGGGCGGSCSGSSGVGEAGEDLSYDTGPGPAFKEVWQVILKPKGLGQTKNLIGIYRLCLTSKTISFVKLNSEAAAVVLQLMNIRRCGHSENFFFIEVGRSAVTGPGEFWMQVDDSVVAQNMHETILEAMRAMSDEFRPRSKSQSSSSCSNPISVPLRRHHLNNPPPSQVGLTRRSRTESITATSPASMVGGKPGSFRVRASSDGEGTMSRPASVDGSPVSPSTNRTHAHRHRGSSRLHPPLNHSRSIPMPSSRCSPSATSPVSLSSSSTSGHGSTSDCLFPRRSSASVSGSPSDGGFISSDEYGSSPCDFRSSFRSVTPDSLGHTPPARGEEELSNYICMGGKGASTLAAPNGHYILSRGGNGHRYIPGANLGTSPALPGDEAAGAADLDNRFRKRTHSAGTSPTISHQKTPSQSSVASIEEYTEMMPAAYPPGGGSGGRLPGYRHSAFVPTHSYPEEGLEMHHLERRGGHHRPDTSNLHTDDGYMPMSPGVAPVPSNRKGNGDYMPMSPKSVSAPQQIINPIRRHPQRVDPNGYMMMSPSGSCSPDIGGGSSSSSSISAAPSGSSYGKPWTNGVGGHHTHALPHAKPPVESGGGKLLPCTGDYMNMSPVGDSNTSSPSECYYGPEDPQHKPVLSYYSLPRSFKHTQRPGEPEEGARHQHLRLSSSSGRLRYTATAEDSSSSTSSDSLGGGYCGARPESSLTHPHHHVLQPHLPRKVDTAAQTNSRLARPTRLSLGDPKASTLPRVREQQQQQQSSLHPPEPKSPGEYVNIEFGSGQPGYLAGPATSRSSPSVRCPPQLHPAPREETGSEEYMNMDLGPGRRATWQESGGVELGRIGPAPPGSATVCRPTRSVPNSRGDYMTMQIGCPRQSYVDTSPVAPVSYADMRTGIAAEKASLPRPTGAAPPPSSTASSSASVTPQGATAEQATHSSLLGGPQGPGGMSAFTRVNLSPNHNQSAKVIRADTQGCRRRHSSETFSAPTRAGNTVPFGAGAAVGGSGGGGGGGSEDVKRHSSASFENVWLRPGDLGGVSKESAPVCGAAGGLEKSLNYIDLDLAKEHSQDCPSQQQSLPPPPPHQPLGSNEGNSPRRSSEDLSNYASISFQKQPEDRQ

T1 sequence (P35968 20-1356): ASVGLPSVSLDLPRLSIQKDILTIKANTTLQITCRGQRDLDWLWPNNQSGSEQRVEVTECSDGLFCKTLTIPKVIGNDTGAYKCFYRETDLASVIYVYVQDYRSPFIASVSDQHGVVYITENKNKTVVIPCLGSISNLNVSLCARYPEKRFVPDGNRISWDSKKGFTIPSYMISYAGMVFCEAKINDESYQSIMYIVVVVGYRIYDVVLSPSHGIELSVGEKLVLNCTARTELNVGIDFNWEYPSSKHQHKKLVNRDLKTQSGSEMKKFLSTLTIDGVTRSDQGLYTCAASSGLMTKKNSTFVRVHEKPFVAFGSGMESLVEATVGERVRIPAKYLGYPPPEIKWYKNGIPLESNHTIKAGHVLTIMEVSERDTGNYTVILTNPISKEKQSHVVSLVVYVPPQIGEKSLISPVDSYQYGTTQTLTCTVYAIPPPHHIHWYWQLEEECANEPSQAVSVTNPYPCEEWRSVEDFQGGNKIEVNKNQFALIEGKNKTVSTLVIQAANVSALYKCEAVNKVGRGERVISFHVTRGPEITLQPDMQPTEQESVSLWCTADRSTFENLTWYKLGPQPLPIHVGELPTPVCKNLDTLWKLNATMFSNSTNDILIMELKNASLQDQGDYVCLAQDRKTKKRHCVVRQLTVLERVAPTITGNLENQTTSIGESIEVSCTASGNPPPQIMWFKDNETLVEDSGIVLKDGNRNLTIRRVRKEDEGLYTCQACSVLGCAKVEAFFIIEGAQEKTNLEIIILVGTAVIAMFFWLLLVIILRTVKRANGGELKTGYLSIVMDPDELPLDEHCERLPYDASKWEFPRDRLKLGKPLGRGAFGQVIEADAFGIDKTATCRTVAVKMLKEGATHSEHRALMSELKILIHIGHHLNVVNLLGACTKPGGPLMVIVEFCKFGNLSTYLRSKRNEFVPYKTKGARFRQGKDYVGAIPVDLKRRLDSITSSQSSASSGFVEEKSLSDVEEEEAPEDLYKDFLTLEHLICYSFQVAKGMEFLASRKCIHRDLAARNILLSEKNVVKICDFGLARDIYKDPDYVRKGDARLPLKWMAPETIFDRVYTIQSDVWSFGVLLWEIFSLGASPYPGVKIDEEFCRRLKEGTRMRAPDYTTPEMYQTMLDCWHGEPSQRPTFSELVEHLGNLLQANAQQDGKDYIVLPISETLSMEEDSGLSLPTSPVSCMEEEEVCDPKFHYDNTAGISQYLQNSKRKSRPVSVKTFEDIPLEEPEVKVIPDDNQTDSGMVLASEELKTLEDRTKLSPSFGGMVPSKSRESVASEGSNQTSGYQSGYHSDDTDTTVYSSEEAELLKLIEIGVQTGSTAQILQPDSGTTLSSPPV

B1: Epsin 1 (endogenous, HUVEC^αvβ3 cells) (other, human, UniProt Q9Y6I3 1-576, looked up)
chain: MSTSSLRRQMKNIVHNYSEAEIKVREATSNDPWGPSSSLMSEIADLTYNVVAFSEIMSMIWKRLNDHGKNWRHVYKAMTLMEYLIKTGSERVSQQCKENMYAVQTLKDFQYVDRDGKDQGVNVREKAKQLVALLRDEDRLREERAHALKTKEKLAQTATASSAAVGSGPPPEAEQAWPQSSGEEELQLQLALAMSKEEADQPPSCGPEDDAQLQLALSLSREEHDKEERIRRGDDLRLQMAIEESKRETGGKEESSLMDLADVFTAPAPAPTTDPWGGPAPMAAAVPTAAPTSDPWGGPPVPPAADPWGGPAPTPASGDPWRPAAPAGPSVDPWGGTPAPAAGEGPTPDPWGSSDGGVPVSGPSASDPWTPAPAFSDPWGGSPAKPSTNGTTAAGGFDTEPDEFSDFDRLRTALPTSGSSAGELELLAGEVPARSPGAFDMSGVRGSLAEAVGSPPPAATPTPTPPTRKTPESFLGPNAALVDLDSLVSRPGPTPPGAKASNPFLPGGGPATGPSVTNPFQPAPPATLTLNQLRLSPVPPVPGAPPTYISPLGGGPGLPPMMPPGPPAPNTNPFLL
notes: also called endogenous epsin 1
binding result [1]: binds

B2: Epsin 1 (endogenous, MAEC and 3T3-L1 cells) (other, mouse, UniProt Q80VP1 1-575, looked up)
chain: MSTSSLRRQMKNIVHNYSEAEIKVREATSNDPWGPSSSLMSEIADLTYNVVAFSEIMSMIWKRLNDHGKNWRHVYKAMTLMEYLIKTGSERVSQQCKENMYAVQTLKDFQYVDRDGKDQGVNVREKAKQLVALLRDEDRLREERAHALKTKEKLAQTATASSAAVGSGPPPEAEQAWPQSSGEEELQLQLALAMSKEEADQPPSCGPEDDVQLQLALSLSREEHDKEERIRRGDDLRLQMAIEESKRETGGKEESSLMDLADVFTTPAPPQASDPWGGPASVPTAVPVAAAASDPWGGPAVPPAADPWGGAAPTPASGDPWRPAAPTGPSVDPWGGTPAPAAGEGPTPDPWGSSDGGAPVSGPPSSDPWAPAPAFSDPWGGSPAKPSSNGTAVGGFDTEPDEFSDFDRLRTALPTSGSSTGELELLAGEVPARSPGAFDMSGVGGSLAESVGSPPPAATPTPTPPTRKTPESFLGPNAALVDLDSLVSRPGPTPPGSKASNPFLPSGAPPTGPSVTNPFQPAPPATLTLNQLRLSPVPPVPGAPPTYISPLGGGPGLPPMMPPGPPAPNTNPFLL
notes: also called epsins
binding result [2]: binds | binding result [3]: binds
